Data: patent publication US8461305B2, “L-fucose α1→6 specific lectin” (J-Oil Mills, Inc., priority 2008, dated 2013)

How the values were obtained:
[1] = molecular target: Aleuria aurantia lectin (AAL) of Comparison Example 1 (Aleuria aurantia) (UniProt P18891); experiment: hemagglutination inhibition; glycoprotein titrated against lectin at titer 4
[2] = molecular target: Aspergillus oryzae lectin (AOL) of Comparison Example 2 (Aspergillus oryzae); experiment: as above
[3] = molecular target: Pholiota terrestris lectin (PTL) of Example 1 (Pholiota terrestris); experiment: as above
[4] = molecular target: Lens culinaris agglutinin (LCA) of Comparison Example 3 (Lens culinaris) (UniProt P02870); experiment: as above
[5] = molecular target: Pisum sativum agglutinin (PSA) of Comparison Example 4 (Pisum sativum) (UniProt P02867); experiment: as above
[6] = molecular target: Stropharia rugosoannulata lectin (SRL) of Example 2 (Stropharia rugosoannulata); experiment: as above
[7] = molecular target: α-fetoprotein-L3 (prepared from the culture supernatant of human liver cancer cells) (human) (UniProt P02771); experiment: ELISA, α-fetoprotein-L3 coated at 0.01 µg/ml, biotin-labeled lectin
α-fetoprotein-L3 (prepared from the culture supernatant of human liver cancer cells) (human), sequence (P02771 19-609 limits assumed): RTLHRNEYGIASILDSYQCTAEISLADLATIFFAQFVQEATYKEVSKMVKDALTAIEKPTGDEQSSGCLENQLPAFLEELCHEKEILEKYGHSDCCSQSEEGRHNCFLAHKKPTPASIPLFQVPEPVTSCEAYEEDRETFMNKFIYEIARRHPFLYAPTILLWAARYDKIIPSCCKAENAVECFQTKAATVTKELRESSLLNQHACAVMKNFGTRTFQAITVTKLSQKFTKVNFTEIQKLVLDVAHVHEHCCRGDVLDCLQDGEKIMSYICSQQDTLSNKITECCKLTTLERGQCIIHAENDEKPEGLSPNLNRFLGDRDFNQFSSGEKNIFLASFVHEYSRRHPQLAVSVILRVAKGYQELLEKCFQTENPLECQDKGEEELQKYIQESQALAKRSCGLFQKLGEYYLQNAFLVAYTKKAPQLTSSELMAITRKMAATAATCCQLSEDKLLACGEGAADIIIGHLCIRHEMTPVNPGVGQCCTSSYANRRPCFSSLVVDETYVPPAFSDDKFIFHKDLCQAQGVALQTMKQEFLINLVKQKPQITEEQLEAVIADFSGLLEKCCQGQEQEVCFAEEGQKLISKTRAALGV

[8] = molecular target: α-fetoprotein (derived from human umbilical cord blood serum, mainly L1-type sugar chain) (human) (UniProt P02771); experiment: ELISA, α-fetoprotein coated at 0.01 µg/ml, biotin-labeled lectin
α-fetoprotein (derived from human umbilical cord blood serum, mainly L1-type sugar chain) (human), sequence (P02771 19-609 limits assumed): as above

Transferrin (human) = Transferrin (human) (human, UniProt P02787 20-698, N-linked glycans without L-fucose α1→6); experiment: Western blotting, glycoprotein on PVDF stained with biotin-labeled lectin
Transferrin (human), sequence (P02787 20-698 limits assumed): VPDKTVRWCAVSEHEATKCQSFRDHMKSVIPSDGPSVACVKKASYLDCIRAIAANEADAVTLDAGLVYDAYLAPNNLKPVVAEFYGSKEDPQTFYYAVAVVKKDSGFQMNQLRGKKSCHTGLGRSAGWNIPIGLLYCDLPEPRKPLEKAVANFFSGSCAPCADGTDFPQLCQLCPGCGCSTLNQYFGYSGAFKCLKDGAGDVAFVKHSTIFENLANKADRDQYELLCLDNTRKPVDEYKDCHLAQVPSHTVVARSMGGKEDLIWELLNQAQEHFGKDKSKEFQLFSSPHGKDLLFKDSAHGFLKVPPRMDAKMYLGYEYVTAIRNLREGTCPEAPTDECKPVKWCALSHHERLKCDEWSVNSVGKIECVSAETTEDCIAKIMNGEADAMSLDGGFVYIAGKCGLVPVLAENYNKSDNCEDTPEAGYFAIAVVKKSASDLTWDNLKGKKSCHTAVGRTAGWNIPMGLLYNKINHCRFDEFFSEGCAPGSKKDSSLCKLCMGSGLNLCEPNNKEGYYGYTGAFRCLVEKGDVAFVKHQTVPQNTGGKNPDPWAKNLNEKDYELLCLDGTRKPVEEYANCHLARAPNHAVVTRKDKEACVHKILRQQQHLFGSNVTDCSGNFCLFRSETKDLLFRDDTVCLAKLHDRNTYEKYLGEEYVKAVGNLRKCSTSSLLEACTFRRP
Procedure: (§1) The film was immersed in 10 mM Tris buffer solution including 0.8% NaCl added with 1% BSA (pH 7.4, 1% BSA+TBS) and was shaken at a room temperature for one hour. Then, the film was cleaned three times by 10 mM Tris buffer solution (pH 7.4, TBS) including 0.8% NaCl. Then, the film was immersed in biotin-labeled lectin solution (2 µg/ml) and was shaken at a room temperature for one hour. Then, the film was cleaned three times by TBS. Then, the film was immersed in the HRP label streptavidin solution at 1 µg/ml (Vector Laboratories) and was shaken at a room temperature for 30 minutes. After the film was cleaned three times by TBS, a POD immunostain set (Wako Pure Chemical Industries, Ltd.) was used to perform a staining test. The staining test is to detect glycoprotein by the western blotting using biotin-labeled lectin. FIG. 13 to FIG. 17 are photographs showing the following glycoproteins stained by PTL (FIG. 13), SRL (FIG. 14), AAL (FIG. 15), AOL (FIG. 16), or LCA (FIG. 17).

Bovine serum albumin = molecular target: T1, Bovine serum albumin (bovine, UniProt P02769 25-607); experiment: ELISA, glycoprotein coated, biotin-labeled lectin; relative value with thyroglobulin = 100%
T1 construct: Control protein without a sugar chain; also called Bovine blood serum albumin; Blood serum albumin (bovine)
T1 sequence (P02769 25-607 limits assumed): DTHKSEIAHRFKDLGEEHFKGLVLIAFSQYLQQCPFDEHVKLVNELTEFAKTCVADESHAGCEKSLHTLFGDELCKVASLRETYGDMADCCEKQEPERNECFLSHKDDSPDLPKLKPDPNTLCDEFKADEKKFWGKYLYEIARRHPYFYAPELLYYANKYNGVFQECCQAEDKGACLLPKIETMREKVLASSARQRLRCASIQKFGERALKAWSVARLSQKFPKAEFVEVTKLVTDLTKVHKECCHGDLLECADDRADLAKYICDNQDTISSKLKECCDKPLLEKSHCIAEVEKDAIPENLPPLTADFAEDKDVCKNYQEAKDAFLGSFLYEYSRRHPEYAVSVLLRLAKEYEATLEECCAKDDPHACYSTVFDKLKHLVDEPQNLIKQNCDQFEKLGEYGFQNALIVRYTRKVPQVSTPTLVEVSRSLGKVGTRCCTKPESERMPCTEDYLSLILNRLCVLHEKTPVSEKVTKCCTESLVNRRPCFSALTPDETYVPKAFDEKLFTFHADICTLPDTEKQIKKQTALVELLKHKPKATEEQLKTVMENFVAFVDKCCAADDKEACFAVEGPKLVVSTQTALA
Procedure: (§2) The glycoprotein and albumin as protein not including a sugar chain as a control were dissolved in 0.1 M carbonic acid buffer solution (pH 9.5) at 1 mg/ml. Then, the resultant solution was added to a microtiter plate (Nunc 439454) and was incubated at 4 degrees C. overnight. Then, the resultant solution was cleaned by 0.05% Tween/PBS three times. Thereafter, 1% BSA/PBS was added to wells and the solution was incubated at 37 degrees C. for one hour. Then, after the solution was cleaned by 0.05% Tween/PBS three times, biotin labeled-lectin appropriately diluted by 1% BSA/0.05% Tween/PBS was added to the wells and the solution was incubated at 37 degrees C. for one hour. After the solution was cleaned by 0.05% Tween/PBS three times, HRP labeled streptavidin solution diluted by 1% BSA/0.05% Tween/PBS was added to wells and the solution was incubated at 37 degrees C. for 30 minutes. After the solution was cleaned by 0.05% Tween/PBS three times, TMB Peroxidase substrate system (KPL) was added and the resultant solution was incubated at a room temperature for 10 minutes while light was being blocked.
(§3) The reaction was stopped by 1 M phosphoric acid. Then, a microplate reader (MPR-A4i, TOSOH CORPORATION) was used to measure the absorbance at 450 nm. Based on this value, reaction value ([absorbance at 450 nm of a well for which glycoprotein was solid-phased to the plate and
(§4) […] reacted]−[absorbance at 450 nm of a well for which glycoprotein was not solid-phased to the plate and reacted] was calculated. Next, for each lectin, the interaction strength (relative value) to each glycoprotein was calculated based on an assumption that the glycoprotein (thyroglobulin) value was 100%. The calculation result is shown in Table 9 and FIG. 19 to FIG. 23.

Invertase (yeast) = molecular target: T2, Invertase (yeast) (yeast, UniProt P00724 20-532, high mannose-type sugar chains); experiment: as above
T2 sequence (looked up): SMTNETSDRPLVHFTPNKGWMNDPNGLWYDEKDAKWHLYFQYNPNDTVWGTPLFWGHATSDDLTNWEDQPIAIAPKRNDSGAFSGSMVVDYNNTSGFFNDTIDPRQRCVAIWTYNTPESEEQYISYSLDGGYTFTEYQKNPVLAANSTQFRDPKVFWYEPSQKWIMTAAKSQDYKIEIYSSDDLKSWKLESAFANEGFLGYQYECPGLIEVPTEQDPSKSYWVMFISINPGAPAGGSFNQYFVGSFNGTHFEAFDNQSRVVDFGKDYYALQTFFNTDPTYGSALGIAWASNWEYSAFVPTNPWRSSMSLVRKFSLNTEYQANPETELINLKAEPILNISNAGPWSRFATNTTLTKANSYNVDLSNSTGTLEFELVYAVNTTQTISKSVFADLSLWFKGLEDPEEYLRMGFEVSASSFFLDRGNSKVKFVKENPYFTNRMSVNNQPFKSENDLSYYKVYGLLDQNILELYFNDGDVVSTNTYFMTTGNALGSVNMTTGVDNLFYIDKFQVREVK
Procedure: as §2, §3, §4

Lactoferrin (bovine) = Lactoferrin (bovine) (bovine, UniProt P24627 20-708, L-fucose α1→6 N-linked glycans); experiment: Western blotting, glycoprotein on PVDF stained with biotin-labeled lectin; ◯ = Detected
Procedure: as §1

Thyroglobulin (pig) = Thyroglobulin (pig) (pig, UniProt F1RRV3 20-2692, L-fucose α1→6 N-linked glycans); experiment: ELISA, glycoprotein coated, biotin-labeled lectin; thyroglobulin set to 100%; ⊚ = relative values of 120 to 80
Thyroglobulin (pig), sequence (F1RRV3 20-2692 limits assumed): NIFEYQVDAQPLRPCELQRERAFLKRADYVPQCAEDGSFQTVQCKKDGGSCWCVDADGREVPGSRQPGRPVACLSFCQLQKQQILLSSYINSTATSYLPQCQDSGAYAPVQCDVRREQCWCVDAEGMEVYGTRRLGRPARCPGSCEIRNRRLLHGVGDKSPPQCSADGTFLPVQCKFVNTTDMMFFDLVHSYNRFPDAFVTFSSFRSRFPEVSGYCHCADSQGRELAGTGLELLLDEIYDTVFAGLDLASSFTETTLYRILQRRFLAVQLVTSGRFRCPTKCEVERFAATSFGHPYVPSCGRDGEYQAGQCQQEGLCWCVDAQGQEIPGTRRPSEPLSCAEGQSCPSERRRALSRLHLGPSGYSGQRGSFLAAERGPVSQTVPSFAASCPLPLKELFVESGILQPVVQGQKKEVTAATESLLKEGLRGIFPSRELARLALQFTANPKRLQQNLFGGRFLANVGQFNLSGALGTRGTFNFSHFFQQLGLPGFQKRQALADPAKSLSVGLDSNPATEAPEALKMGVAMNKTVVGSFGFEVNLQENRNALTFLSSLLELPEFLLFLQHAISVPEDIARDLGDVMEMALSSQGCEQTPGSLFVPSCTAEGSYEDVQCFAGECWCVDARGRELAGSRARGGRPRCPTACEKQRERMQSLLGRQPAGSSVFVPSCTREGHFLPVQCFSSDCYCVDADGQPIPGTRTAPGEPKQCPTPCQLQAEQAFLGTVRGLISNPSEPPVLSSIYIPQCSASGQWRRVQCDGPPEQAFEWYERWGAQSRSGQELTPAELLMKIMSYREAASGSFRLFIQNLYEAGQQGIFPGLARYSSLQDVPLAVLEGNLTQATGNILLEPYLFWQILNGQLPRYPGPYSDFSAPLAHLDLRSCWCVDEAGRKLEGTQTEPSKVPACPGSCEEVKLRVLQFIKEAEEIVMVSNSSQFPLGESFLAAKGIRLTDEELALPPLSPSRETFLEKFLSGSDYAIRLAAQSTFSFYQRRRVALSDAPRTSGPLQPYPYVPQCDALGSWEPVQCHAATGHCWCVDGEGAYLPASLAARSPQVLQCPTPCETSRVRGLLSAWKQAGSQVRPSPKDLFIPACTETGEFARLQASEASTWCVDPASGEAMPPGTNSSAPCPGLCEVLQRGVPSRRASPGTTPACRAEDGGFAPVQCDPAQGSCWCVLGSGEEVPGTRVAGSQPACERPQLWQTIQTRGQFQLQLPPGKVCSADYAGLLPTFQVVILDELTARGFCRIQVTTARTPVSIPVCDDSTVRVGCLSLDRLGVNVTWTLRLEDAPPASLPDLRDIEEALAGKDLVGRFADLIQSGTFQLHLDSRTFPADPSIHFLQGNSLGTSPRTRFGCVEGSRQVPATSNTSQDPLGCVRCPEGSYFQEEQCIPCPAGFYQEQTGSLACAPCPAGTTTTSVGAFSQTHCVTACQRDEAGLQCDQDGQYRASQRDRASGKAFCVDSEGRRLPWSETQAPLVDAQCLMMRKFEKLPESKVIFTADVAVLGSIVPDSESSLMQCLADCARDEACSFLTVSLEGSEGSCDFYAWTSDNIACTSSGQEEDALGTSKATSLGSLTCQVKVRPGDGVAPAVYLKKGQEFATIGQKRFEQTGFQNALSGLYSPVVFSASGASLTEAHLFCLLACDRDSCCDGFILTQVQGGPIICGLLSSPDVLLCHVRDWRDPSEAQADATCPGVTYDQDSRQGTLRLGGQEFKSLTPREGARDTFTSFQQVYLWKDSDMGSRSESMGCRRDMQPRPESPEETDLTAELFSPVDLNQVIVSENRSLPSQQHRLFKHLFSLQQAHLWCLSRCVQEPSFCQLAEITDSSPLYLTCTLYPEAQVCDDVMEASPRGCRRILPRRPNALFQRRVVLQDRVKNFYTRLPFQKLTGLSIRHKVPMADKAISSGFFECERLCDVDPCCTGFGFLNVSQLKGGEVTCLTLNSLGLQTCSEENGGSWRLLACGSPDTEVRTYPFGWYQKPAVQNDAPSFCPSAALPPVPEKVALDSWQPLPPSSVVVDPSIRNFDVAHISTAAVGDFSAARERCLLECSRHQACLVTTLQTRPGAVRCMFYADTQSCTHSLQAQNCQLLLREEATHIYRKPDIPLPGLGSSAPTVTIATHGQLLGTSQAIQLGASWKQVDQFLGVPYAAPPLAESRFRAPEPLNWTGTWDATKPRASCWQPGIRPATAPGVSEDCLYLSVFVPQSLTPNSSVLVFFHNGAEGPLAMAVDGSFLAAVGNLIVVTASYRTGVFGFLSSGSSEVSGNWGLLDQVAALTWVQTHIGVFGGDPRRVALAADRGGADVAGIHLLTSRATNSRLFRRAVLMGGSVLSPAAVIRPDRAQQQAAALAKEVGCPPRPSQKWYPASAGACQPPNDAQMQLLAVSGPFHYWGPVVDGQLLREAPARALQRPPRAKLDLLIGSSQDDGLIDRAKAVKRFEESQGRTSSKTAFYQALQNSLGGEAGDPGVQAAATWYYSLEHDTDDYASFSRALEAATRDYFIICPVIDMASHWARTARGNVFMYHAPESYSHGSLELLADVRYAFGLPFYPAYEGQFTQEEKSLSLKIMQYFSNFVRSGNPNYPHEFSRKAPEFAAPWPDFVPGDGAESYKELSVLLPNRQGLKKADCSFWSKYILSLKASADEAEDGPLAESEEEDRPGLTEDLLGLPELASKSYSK
Procedure: The glycoprotein and albumin as protein not including a sugar chain as a control were dissolved in 0.1 M carbonic acid buffer solution (pH 9.5) at 1 mg/ml. Then, the resultant solution was added to a microtiter plate (Nunc 439454) and was incubated at 4 degrees C. overnight. Then, the resultant solution was cleaned by 0.05% Tween/PBS three times. Thereafter, 1% BSA/PBS was added to wells and the solution was incubated at 37 degrees C. for one hour. Then, after the solution was cleaned by 0.05% Tween/PBS three times, biotin labeled-lectin appropriately diluted by 1% BSA/0.05% Tween/PBS was added to the wells and the solution was incubated at 37 degrees C. for one hour. […]
as §3
In contrast with this, in the case of PTL of Example 1 and SRL of Example 2, only glycoprotein having sL-fucose α1→6 sugar chain is detected and a non-L-fucose α1→6 reacted]−[absorbance at 450 nm of a well for which glycoprotein was not solid-phased to the plate and reacted] was calculated. […]

Aspergillus oryzae lectin (AOL) of Comparison Example 2 (Aspergillus oryzae), sequence (Q8TGE0 whole entry): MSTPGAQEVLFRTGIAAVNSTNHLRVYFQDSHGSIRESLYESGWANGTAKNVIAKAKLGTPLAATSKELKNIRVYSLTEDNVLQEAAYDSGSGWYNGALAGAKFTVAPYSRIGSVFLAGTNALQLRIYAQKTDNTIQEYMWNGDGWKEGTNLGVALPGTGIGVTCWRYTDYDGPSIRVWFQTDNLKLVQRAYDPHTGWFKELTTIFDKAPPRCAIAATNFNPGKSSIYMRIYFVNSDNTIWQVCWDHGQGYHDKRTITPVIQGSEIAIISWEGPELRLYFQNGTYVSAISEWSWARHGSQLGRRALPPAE

Asialomucin (pig) gave a minimum inhibition concentration [1] of 31.3 µl/ml and a minimum inhibition concentration [2] of 62.5 µl/ml.

Work on “Thyroglobulin (Table 3 and affinity column, species not stated)” yielded a minimum inhibition concentration [3] of 250 µl/ml, a minimum inhibition concentration [1] of 125 µl/ml and a minimum inhibition concentration [4] of 62.5 µl/ml. It also gave a minimum inhibition concentration [5] of 62.5 µl/ml and a minimum inhibition concentration [6] of 250 µl/ml.

Mucin (pig) was tested, and the minimum inhibition concentration [1] was 15.6 µl/ml and the minimum inhibition concentration [2] was 62.5 µl/ml.

With “Aspergillus oryzae lectin (AOL) of Comparison Example 2” the reaction value (absorbance at 450 nm, blank subtracted) (absorbance at 450 nm) [7] was 0.898 and the reaction value (absorbance at 450 nm, blank subtracted) (absorbance at 450 nm) [8] was 0.011.

Work on “Lens culinaris agglutinin (LCA) of Comparison Example 3 (from UniProt P02870 31-210; P02870 218-269)” yielded a reaction value (absorbance at 450 nm, blank subtracted) (absorbance at 450 nm) [7] of 0.455 and a reaction value (absorbance at 450 nm, blank subtracted) (absorbance at 450 nm) [8] of 0.01.

With “Stropharia rugosoannulata lectin (SRL) of Example 2” the reaction value (absorbance at 450 nm, blank subtracted) (absorbance at 450 nm) [7] was 1.62 and the reaction value (absorbance at 450 nm, blank subtracted) (absorbance at 450 nm) [8] was 0.031.

“Aleuria aurantia lectin (AAL) of Comparison Example 1 (from UniProt P18891 2-313)” gave a reaction value (absorbance at 450 nm, blank subtracted) (absorbance at 450 nm) [7] of 0.795.

“Pholiota terrestris lectin (PTL) of Example 1” showed a reaction value (absorbance at 450 nm, blank subtracted) (absorbance at 450 nm) [7] of 1.55.

With Asialofetuin the minimum inhibition concentration [4] was 250 µl/ml.

B1: Aleuria aurantia lectin (AAL) of Comparison Example 1 (other, UniProt P18891 2-313, looked up)
chain: PTEFLYTSKIAAISWAATGGRQQRVYFQDLNGKIREAQRGGDNPWTGGSSQNVIGEAKLFSPLAAVTWKSAQGIQIRVYCVNKDNILSEFVYDGSKWITGQLGSVGVKVGSNSKLAALQWGGSESAPPNIRVYYQKSNGSGSSIHEYVWSGKWTAGASFGSTVPGTGIGATAIGPGRLRIYYQATDNKIREHCWDSNSWYVGGFSASASAGVSIAAISWGSTPNIRVYWQKGREELYEAAYGGSWNTPGQIKDASRPTPSLPDTFIAANSSGNIDISVFFQASGVSLQQWQWISGKGWSIGAVVPTGTPAGW
modifications: biotin-labeled in the Western blotting and ELISA experiments
notes: Bought lectin
B1: no binding (tested: biotin-labeled lectin 2 µg/ml) (Transferrin (human)); no binding (tested: relative value 10 or less) (Bovine serum albumin); no binding (tested: relative value 10 or less) (Invertase (yeast)). B1: binds (Lactoferrin (bovine)); binds (Thyroglobulin (pig)).

B2: Lens culinaris agglutinin (LCA) of Comparison Example 3 (other)
chain 1: TETTSFSITKFSPDQKNLIFQGDGYTTKGKLTLTKAVKSTVGRALYSTPIHIWDRDTGNVANFVTSFTFVIDAPSSYNVADEFTFFIAPVDTKPQTGGGYLGVFNSKEYDKTSQTVAVEFDTFYNAAWDPSNKERHIGIDVNSIKSVNTKSWNLQNGERANVVIAFNAATNVLTVTLTYP
chain 2: VTSYTLNEVVPLKDVVPEWVRIGFSATTGAEFAAHEVHSWSFHSELGGTSSS
modifications: biotin-labeled in the Western blotting and ELISA experiments
notes: Bought lectin
B2: no binding (tested: biotin-labeled lectin 2 µg/ml) (Transferrin (human)); no binding (tested: relative value 10 or less) (Bovine serum albumin).
